Data on five molecules can be found in patent publication US6870033.

Like-named read-outs stand apart in the source and are kept apart here. A value given as a limit tells only on which side of the number the result lay.

Experiment [1] addresses T1, recombinant human IL-8, (ser-IL-8)72 (human, UniProt P10145 28-99).
T1 construct: mature; radio-iodinated when used as tracer; also called human wild type IL-8; wt IL-8
T1 sequence (looked up): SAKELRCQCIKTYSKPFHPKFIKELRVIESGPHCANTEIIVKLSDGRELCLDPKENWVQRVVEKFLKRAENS
Briefly: inhibition of 125I-IL-8 binding to human neutrophils.

Experiment [2] deals with T1, recombinant human IL-8, (ser-IL-8)72. Described as above. This is another data set of the same source.
Experiment [3] shares this target. Nature of the experiment: cell-based or functional assay.
In the next experiment the target is T2, rhesus IL-8 (rhesus, UniProt P67813 23-101, limits assumed).
T2 sequence (looked up): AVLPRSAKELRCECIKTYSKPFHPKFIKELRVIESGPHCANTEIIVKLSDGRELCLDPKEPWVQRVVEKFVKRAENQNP
Briefly: cell-based or functional assay.

B1: humanized 6G425 F(ab)-1 (Fab, V domains shown)
VH: EVQLVESGGGLVQPGGSLRLSCAASGYSFSSHYMHWVRQAPGKGLEWVGYIDPSNGETTYNQKFKGRFTISRDNSKNTLYLQMNSLRAEDTAVYYCARGDYRYNGDWFFDVWGQGTLVTVSS
VL: DIQMTQSPSSLSASVGDRVTITCRSSQSLVHGIGNTYLHWYQQKPGKAPKLLIYKVSNRFSGVPSRFSGSGSGTDFTLTISSLQPEDFATYYCSQSTHVPLTFGQGTKVEIKR
notes: Fab with human kappa subgroup I light chain and human IgG1 subgroup III heavy chain (vector pEMX1); also called version 1; VI
For B1, in experiment [1], the IC50 came out at 40 nM and the “fold reduction in binding affinity (against the chimeric F(ab) of Table 4)” value was 5.5 fold. For the same molecule, in experiment [2], the IC50 was 63 nM.

B2: humanized 6G425 F(ab)-8 (6G4.2.5V19) (Fab, V domains shown)
VH: EVQLVESGGGLVQPGGSLRLSCAASGYSFSSHYMHWVKQAPGKGLEWVGYIDPSNGETTYNQKFKGRFTLSRDNSKNTAYLQMNSLRAEDTAVYYCARGDYRYNGDWFFDVWGQGTLVTVSS
VL: DIQMTQSPSSLSASVGDRVTITCRSSQSLVHGIGNTYLHWYQQKPGKAPKLLIYKVSNRFSGVPSRFSGSGSGTDFTLTISSLQPEDFATYYCSQSTHVPLTFGQGTKVEIKR
In the case of B2, the figures for the “IC50, neutrophil chemotaxis” value (in experiment [3]; with rhesus IL-8) were 0.12 nM and 10 nM, respectively.

B3: humanized 6G425 F(ab)-3 (Fab, V domains shown)
VH: EVQLVESGGGLVQPGGSLRLSCAASGYSFSSHYMHWVRQAPGKGLEWVGYIDPSNGETTYNQKFKGRFTISVDNSKNTLYLQMNSLRAEDTAVYYCARGDYRYNGDWFFDVWGQGTLVTVSS
VL: DIQMTQSPSSLSASVGDRVTITCRSSQSLVHGIGNTYLHWYQQKPGKAPKLLIYKVSNRFSGVPSRFSGSGSGTDFTLTISSLQPEDFATYYCSQSTHVPLTFGQGTKVEIKR
notes: Template F(ab)-1; Fab constant parts as F(ab)-1; also called version 3
On to B3, for which the “fold decrease in IL-8 binding (against F(ab)-1)” value in experiment [1] is < 2 fold. Also, the IC50 in experiment [2] worked out at 79.8 nM.

B4: humanized 6G425 F(ab)-2 (Fab, V domains shown)
VH: EVQLVESGGGLVQPGGSLRLSCAASGYSFSSHYMHWVRQAPGKGLEWVGYIDPSNGETTYNQKFKGRATISRDNSKNTLYLQMNSLRAEDTAVYYCARGDYRYNGDWFFDVWGQGTLVTVSS
VL: DIQMTQSPSSLSASVGDRVTITCRSSQSLVHGIGNTYLHWYQQKPGKAPKLLIYKVSNRFSGVPSRFSGSGSGTDFTLTISSLQPEDFATYYCSQSTHVPLTFGQGTKVEIKR
notes: Template F(ab)-1; Fab constant parts as F(ab)-1; also called version 2
Regarding B4, the “fold decrease in IL-8 binding (against F(ab)-1)” value in experiment [1] is < 2 fold. Further, the IC50 in experiment [2] turned out to be 106 nM.

B5: humanized 6G425 F(ab)-7 (Fab, V domains shown)
VH: EVQLVESGGGLVQPGGSLRLSCAASGYSFSSHYMHWVRQAPGKGLEWVGYIDPSNGETTYNQKFKGRFTLSRDNSKNTAYVQMNSLRAEDTAVYYCARGDYRYNGDWFFDVWGQGTLVTVSS
VL: DIQMTQSPSSLSASVGDRVTITCRSSQSLVHGIGNTYLHWYQQKPGKAPKLLIYKVSNRFSGVPSRFSGSGSGTDFTLTISSLQPEDFATYYCSQSTHVPLTFGQGTKVEIKR
notes: Template F(ab)-6; Fab constant parts as F(ab)-1; also called version 16
With B5, the IC50 in experiment [2] was 38.4 nM.
